According to doi:10.1101/2025.06.20.660733:

How the values were obtained:
[1] = molecular target: neuraminidase of A/cattle/Texas/56283/2024 (H5N1), recombinant head domain (influenza A virus A/cattle/Texas/56283/2024 (H5N1))
[2] = molecular target: neuraminidase of A/Moscow/10/1999 (H3N2), recombinant head domain (influenza A virus A/Moscow/10/1999 (H3N2))

B1: HB420 (human IgG1) (antibody, V domains shown)
VH: EVQLVESGAEVKKPGSSVKVSCMASGGSFGSYGFSWVRQAPGQGLEWMGGIIPLFDTPNYAQKFQGRVTITADASTSTVYMELSSLRSEDTAVYYCARDSLPYGDQNYYYGMHVWGQGTTVTVSS
VL: QSALTQPASLSGSPGQSITISCSGSSSDIGDYNYVSWYQQHPGKAPKLIIYDVTNRPSGVSDRLSGSKSGTTASLTISGLQAEDEADYYCSSYGGNYNLVFGGGTKLTVL
With B1 the NA inhibition of recombinant NA by enzyme-linked lectin assay (ELLA), IC50 [1] was 50 µg/mL and the NA inhibition of recombinant NA by enzyme-linked lectin assay (ELLA), IC50 [2] was 0.19 µg/mL.
